Source: US20170008928A1, “NOVEL PEPTIDES AND PEPTIDE DERIVATIVES AND USES THEREOF” (Novo Nordisk A/S, priority 2015, published 2017)

How the values were obtained:
[1] = Plasma exposure after the last dose in DIO mini-pigs; format: in vivo, Göttingen mini-pigs; details: combination group, liraglutide […]
Protocol: The CCK derivative was dissolved in the following buffer: 8 mM phosphate, 184 mM propylene glycol, 58 mM phenol, pH 7.4 concentrations ranging from 2000-10000 nmol/mL corresponding to dose volumes ranging from 0.00075-0.001 mL/kg. Liraglutide was dissolved in 8 mM phosphate, 184 mM propylenglycol, 58 mM phenol, pH 8.15 (1600 nmol/mL), dose volume was 0.001 mL/kg and this formulation also served as a vehicle for all 3 treatment groups. Animals were dosed subcutaneously once daily with vehicle, CCK derivative, liraglutide, or liraglutide in combination with the CCK derivative (given as two separate injections in each side of the neck). After the last dose blood samples were obtained in EDTA coated tubes at selected time points for up to 480 hours after dosing. Blood was sampled through central-venous catheters implanted under general anaesthesia after 11 weeks of treatment.
The resulting plasma was pipetted into Micronic tubes on dry ice, and kept at −20° C. until analysed for plasma exposure of liraglutide and the CCK derivative. Plasma content of the CCK derivative was measured using LC-MS method II, as described in Example 93. Plasma content of liraglutide was measured using LOCI (Luminescence Oxygen Channeling Immunoasssay). LOCI is generally described for the determination of insulin by Poulsen and Jensen in Journal of Biomolecular Screening 2007, vol. 12, p. 240-247. The donor beads were coated with streptavidin, while acceptor beads were conjugated with a monoclonal antibody recognising a C-terminal epitope of the peptide. Another monoclonal antibody, specific for the N-terminus, was biotinylated. The three reactants were combined with the analyte and formed a two-sited immuno-complex. Illumination of the complex released singlet oxygen atoms from the donor beads, which were channelled into the acceptor beads and triggered chemiluminescence which was measured in an Envision plate reader. The amount of light was proportional to the concentration of the compound.

[2] = molecular target: T1, human cholecystokinin-2 receptor (human, UniProt P32239 1-447); test: cell-based or functional assay
T1 sequence (looked up): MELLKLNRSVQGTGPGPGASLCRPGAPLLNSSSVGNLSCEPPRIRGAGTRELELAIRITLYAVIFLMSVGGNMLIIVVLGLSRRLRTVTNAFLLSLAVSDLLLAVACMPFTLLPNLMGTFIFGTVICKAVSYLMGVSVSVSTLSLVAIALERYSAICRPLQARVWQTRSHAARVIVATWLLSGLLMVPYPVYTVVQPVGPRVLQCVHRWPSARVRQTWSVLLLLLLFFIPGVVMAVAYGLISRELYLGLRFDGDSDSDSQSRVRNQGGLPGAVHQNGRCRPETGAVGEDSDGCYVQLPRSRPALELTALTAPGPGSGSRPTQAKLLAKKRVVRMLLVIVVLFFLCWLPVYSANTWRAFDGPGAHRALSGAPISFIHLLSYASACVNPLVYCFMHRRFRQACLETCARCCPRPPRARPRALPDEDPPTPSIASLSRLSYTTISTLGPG

[3] = molecular target: T2, human cholecystokinin-1 receptor (human, UniProt P32238 1-428); test: cell-based or functional assay
T2 sequence (looked up): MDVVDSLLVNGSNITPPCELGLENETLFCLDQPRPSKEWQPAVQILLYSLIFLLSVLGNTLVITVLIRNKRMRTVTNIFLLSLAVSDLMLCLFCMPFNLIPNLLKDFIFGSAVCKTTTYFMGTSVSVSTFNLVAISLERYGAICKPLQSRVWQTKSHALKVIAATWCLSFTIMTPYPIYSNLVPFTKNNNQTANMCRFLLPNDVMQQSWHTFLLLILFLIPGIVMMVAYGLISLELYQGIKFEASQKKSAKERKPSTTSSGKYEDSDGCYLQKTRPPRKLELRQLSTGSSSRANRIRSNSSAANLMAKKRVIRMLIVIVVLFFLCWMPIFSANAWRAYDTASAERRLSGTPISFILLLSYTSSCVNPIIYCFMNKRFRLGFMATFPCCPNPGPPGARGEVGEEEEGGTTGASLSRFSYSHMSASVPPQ

[4] = molecular target: T2, human cholecystokinin-1 receptor; test: ratio of SPA IC50s, reference CCK-2R

| Molecule | AUCexposure (0-24 h) after last dose, Liraglutide [1] | EC50 (CCK-2R) [2] [nM] | CCK-1R selectivity (EC50 (CCK-2R)/EC50 (CCK-1R)) [3] | EC50 (CCK-1R) [3] [nM] | CCK-1R binding selectivity (IC50 (CCK-2R)/IC50 (CCK-1R)) [4] |
| --- | --- | --- | --- | --- | --- |
| CCCCCCCCCCCCCCCC(=O)N[C@@H](CCC(=O)NCCCC[C@H](NC(=O)[C@H](C)NC(=O)[C@H](C)NC(=O)[C@H](CCC(N)=O)NC(=O)CNC(=O)[C@H](CCC(=O)O)NC(=O)[C@H](CC(C)C)NC(=O)[C@H](Cc1ccc(O)cc1)NC(=O)[C@H](CO)NC(=O)[C@H](CO)NC(=O)[C@@H](NC(=O)[C@H](CC(=O)O)NC(=O)[C@H](CO)NC(=O)[C@@H](NC(=O)[C@H](Cc1ccccc1)NC(=O)[C@@H](NC(=O)CNC(=O)[C@H](CCC(=O)O)NC(=O)[C@H](C)NC(=O)[C@@H](N)Cc1cnc[nH]1)[C@@H](C)O)[C@@H](C)O)C(C)C)C(=O)N[C@@H](CCC(=O)O)C(=O)N[C@@H](Cc1ccccc1)C(=O)N[C@H](C(=O)N[C@@H](C)C(=O)N[C@@H](Cc1c[nH]c2ccccc12)C(=O)N[C@@H](CC(C)C)C(=O)N[C@H](C(=O)N[C@@H](CCCNC(=N)N)C(=O)NCC(=O)N[C@@H](CCCNC(=N)N)C(=O)NCC(=O)O)C(C)C)[C@@H](C)CC)C(=O)O [Liraglutide, reference compound] | Liraglutide: 399872 pM*h | – | – | – | – |
| Asp-sTyr-Nle-Gly-Trp-Nle-DMeAsp-1Nal-amide (peptide) | – | 290 | 2100 | 0.14 | 84000 |
